Source: US12527862B2, “Bactericidal/permeability increasing protein for use in a method of immunization, preferably as an adjuvant in a method of vaccination” (UNIVERSITÄT REGENSBURG, priority 2018, dated 2026)

Test system: naïve CD4+ T cells
Test: T cell activation assay with naïve CD4+ T cells and dendritic cell-derived supernatant
Format: cell-based, C57BL/6J mice
Conditions: DC supernatant after BPI 200 nM ± ODN 1826 20 nM, aCD3 and aCD28, day five, Luminex, n=3 (FIG. 13A-C)
Experimental: Naive CD4+CD25-CD44-CD62L+ T cells were isolated from peripheral lymph nodes and spleen of C57BL/6J mice and purified by MACS and FACS. Naïve CD4+ T cells were cultured in the presence of aCD3 and aCD28 antibodies and dendritic cell-derived supernatant after stimulation with BPI (SN BPI, BPI 200 nM) or after stimulation with ODN 1826 (SN CpG, ODN 1826 20 nM) or after stimulation with BPI and ODN 1826 (SN BPI+CpG, BPI 200 nM, ODN 1826 20 nM) or supernatant without addition of BPI or ODN 1826 (SN NT). On day five, cytokine levels were measured by Luminex. • A. Th1 differentiation as shown by detection of IFNγ (n=3). • B. Th17 differentiation as shown by detection of IL-17 (n=3). • C. […] Lymph node cells were stimulated with aCD3 and aCD28 antibodies and SN BPI or SN NT and incubated for 6h before adding a protein transport inhibitor cocktail and incubating for additional 16h. […]
To isolate CD4+SC and pLNC, cells isolated from spleen and peripheral lymph nodes (see 2.1.3) were sorted by magnetic cell sorting (MACS), using a CD4+ T cell isolation kit (#130-104-454, Miltenyi Biotec). […] The flow-through, containing unlabeled CD4+ cells, was collected and cell number was determined using a hemocytometer. CD4+SC and pLNC were used in experiments or labeled with fluorescent antibodies against non-naïve T cell markers for fluorescence activated cell sorting (FACS) of naïve CD4+ T cells. […]

B1: bactericidal/permeability-increasing protein (protein)
chain: RIKIPDYSDSFKIKHLGKGHYSFYSMDIREFQLPSSQISMVPNVGLKFSISNANIKISGKWKAQKRFLKMSGNFDLSIEGMSISADLKLGSNPTSGKPTITCSSCSSHINSVHVHISKSKVGWLIQLFHKKIESALRNKMNSQVCEKVTNSVSSELQPYFQTLPVMTKIDSVAGINYGLVAPPATTAETLDVQMKGEFYSENHHNPPPFAPPVMEFPAAHDRMVYLGLSDYFFNTAGLVYQEAGVLKMTLRDDMIPKESKFRLTTKFFGTFLPEVAKKFPNMKIQIHVSASTPPHLSVQPTGLTFYPAVDVQAFAVLPNSSLASLFLIGMHTTGSMEVSAESNRLVGELKLDRLLLELKHSNIGPFPVELLQDIMNYIVPILVLPRVNEKLQKGFPLPTPARVQLYNVVLQPHQNFLLFGADVVYK
modifications: labeled with NT647 (Monolith NT Protein Labeling Kit RED-NHS) in the MST experiments
notes: recombinant human BPI, aa32-487 of huBPI with N-terminal HA signal peptide, expressed in HEK293T cells
activation and differentiation of naïve T cells into Th1, Th17 and Th22 cells (IFNγ, IL-17, IL-22): promotes not only activation but also differentiation of naïve T cells into Th1, Th17 and Th22 cells
